Molecular target: T1, SARS-CoV-2 prototype receptor binding domain (SARS-CoV-2 prototype, GISAID …, UniProt P0DTC2)
T1 construct: also called SARS-CoV-2 PT RBD; RBD
Assay: SPR; BIAcore 8K; antibody captured on a Protein A chip ([…]; running buffer PBST (PBS + 0.05% ([…]) Tween 20); […]; 1:1 (Langmuir) binding model; […]
Details: both partners purified

B1: CB6 antibody (wild type) (antibody, V domains shown)
VH: EVQLVESGGGLVQPGGSLRLSCAASGFTVSSNYMSWVRQAPGKGLEWVSVIYSGGSTFYADSVKGRFTISRDNSMNTLFLQMNSLRAEDTAVYYCARVLPMYGDYLDYWGQGTLVTVSS
VL: not shown
notes: heavy chain variable region of CB6; constant region of human IgG1; light chain variable part of CB6; Ig kappa chain (constant part) to which the light chain was fused; IgG1, kappa; also called WT
B1 was tested, and the Kd was 14.6 nM.

Reference: paper PMC12199698, “Reliable prediction of protein–protein binding affinity changes upon mutations with Pythia-PPI” (National Science Review, 2025)
